According to PMC9675693, “Production and characterisation of modularly deuterated UBE2D1–Ub conjugate by small angle neutron and X-ray scattering” (European Biophysics Journal, 2022):

Biological target: the molecule itself
Experiment: SDS-PAGE; purified hE2 on an SDS-PAGE gel; additional band of ~25 kDa

B1: human Ubiquitin-conjugating enzyme UBE2D1 with point mutations S22R, C85K and D87S, hydrogenated (enzyme)
chain: not shown
notes: Ubiquitin-conjugating enzyme UBE2D1, human, with S22R, C85K and D87S; In the SAS experiment (a1) K85 of this chain is joined by an isopeptide bond to G76 of dUb; also called hE2; not shown: His6, N-terminal, cleaved
binding result: binds
